The record followed here is patent publication US20220259298A1 (KYOTO UNIVERSITY, published 2022).

Where two headings read alike, the source gives them in different places.

The Kd is the concentration at which binding is half-saturated.

The target in test [1] is T1, N-terminal PA-tagged mouse USAG-1 (WISE) recombinant protein (mouse, UniProt Q9CQN4 24-206).
T1 construct: The pull-downs used culture supernatant of Expi293F cells; also called PA-mUSAG-1 (WISE); purified full-length recombinant mouse USAG-1; not shown: PA tag at the N-terminal
T1 sequence (looked up): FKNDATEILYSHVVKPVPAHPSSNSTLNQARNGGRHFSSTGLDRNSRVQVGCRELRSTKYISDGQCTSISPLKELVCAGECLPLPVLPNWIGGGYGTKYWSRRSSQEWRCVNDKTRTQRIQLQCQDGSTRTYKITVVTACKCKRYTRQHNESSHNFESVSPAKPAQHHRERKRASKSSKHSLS
Nature of the test: BLI (Octet), antibody immobilized on the biosensor, mouse USAG-1 at 10, 30, 100 nM, global fitting. How it is done: For 8 out of the 9 antibodies grouped in Example 8, affinities (KD values) were determined by using the same Octet-based BLI method as in Example 8. […] The affinities were calculated by subjecting the obtained curves to global fitting with an analysis program attached to the Octet device.
(In general: In BLI a coated tip is dipped into the sample, and binding shifts an interference pattern.)

In test [2] the target is T1, N-terminal PA-tagged mouse USAG-1 …. Nature of the test: cell-based or functional assay.
Test [3] deals with T2, human FLAG-tagged USAG-1 transiently forcibly expressed in HEK293 cells (human, UniProt Q6X4U4 24-206).
T2 construct: whole, on cells; Immunostaining of transfected cells; not shown: FLAG tag
T2 sequence (looked up): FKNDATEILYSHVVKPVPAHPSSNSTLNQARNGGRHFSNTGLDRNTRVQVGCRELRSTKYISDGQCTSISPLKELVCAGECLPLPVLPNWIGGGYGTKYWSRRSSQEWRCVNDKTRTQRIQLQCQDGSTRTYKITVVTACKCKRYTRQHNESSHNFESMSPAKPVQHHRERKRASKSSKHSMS
Nature of the test: immunostaining of HEK293 cells transiently expressing human FLAG-tagged USAG-1.

In test [4] the target is T3, 15 amino acid peptide for epitope mapping QEWRCVNDKTRTQRI (SEQ ID NO: 32) (human).
T3 peptide: QEWRCVNDKTRTQRI
Put plainly: peptide array on cellulose membrane, HRP-conjugated anti-mouse antibody, ECL. How it is done: (§1) Briefly, 169 overlapping peptides of 15 amino acids were synthesized based on a human USAG-1 protein sequence (183 amino acid length) excluding a signal peptide by shifting the 15 amino acid sequence from the beginning by one amino acid to prepare a peptide library. The 169 kinds of peptides were bound onto a cellulose membrane to prepare a peptide array. […] After washing, an HRP-conjugated anti-mouse antibody (1/25000 dilution) was added as a secondary antibody, and ECL solution was used for color development.

Test [5] concerns the target T4, 15 amino acid peptide for epitope mapping CVNDKTRTQRIQLQC (SEQ ID NO: 36) (human).
T4 peptide: CVNDKTRTQRIQLQC
The test is described as above. How it is done: as §1

In test [6] the target is T5, 15 amino acid peptide for epitope mapping EWRCVNDKTRTQRIQ (SEQ ID NO: 33) (human).
T5 peptide: EWRCVNDKTRTQRIQ
The test is described as above. The method, then:
as §1

Test [7] concerns the target T6, 15 amino acid peptide for epitope mapping RCVNDKTRTQRIQLQ (SEQ ID NO: 35) (human).
T6 peptide: RCVNDKTRTQRIQLQ
The description is as above. The method, then:
as §1

The target in test [8] is T7, 15 amino acid peptide for epitope mapping VNDKTRTQRIQLQCQ (SEQ ID NO: 37) (human).
T7 peptide: VNDKTRTQRIQLQCQ
The test is described as above. The method, then: as §1

Test [9] has as its target T8, 15 amino acid peptide for epitope mapping WRCVNDKTRTQRIQL (SEQ ID NO: 34) (human).
T8 peptide: WRCVNDKTRTQRIQL
Described as above. How it is done: as §1

Test [10] addresses T9, human USAG-1 protein (human, UniProt Q6X4U4 24-206).
T9 construct: mature
T9 sequence (looked up): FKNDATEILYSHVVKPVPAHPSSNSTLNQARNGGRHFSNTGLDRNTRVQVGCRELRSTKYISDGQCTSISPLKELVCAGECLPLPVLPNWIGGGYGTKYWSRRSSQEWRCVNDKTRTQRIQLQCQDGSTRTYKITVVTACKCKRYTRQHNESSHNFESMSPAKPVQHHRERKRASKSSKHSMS
Nature of the test: solid-phase ELISA of the hybridoma clone on the immunizing antigen (E. coli-derived human USAG-1, R & D systems), paragraph 134.

Test [11] concerns the target T9, human USAG-1 protein. The description is as above. This is another data set of the same source.

B1: mouse anti-USAG-1 neutralizing antibody C (B14) (antibody, V domains shown)
VH: EVQLQQSGPELVKPGASVKISCKASGYSFTGYYMNWVKQSPEKSLEWIGEINPTTGGTTYNQKFKAKATLTVDKSSSTAYMQLKSLTSEDSAVYYCARLHYDYDGVGYAMDYWGQGTSVTVSS
VL: DIVMTQSHKFMSTSVGDRVSITCKASQDVSTAVAWYQQKPGQSPKLLIYSASYRYTGVPARFTGSGSGTDFTFTISSVQAEDLAVYYCQQHYSTPPTFGGGTKLEIKR
notes: Raised against baculovirus-derived rat USAG-1
Turning to B1, the dissociation constant (Kd) in test [1] was found to be 4.21 nM. For the same molecule, in [2], the “EC50 against the BMP signaling inhibition by USAG-1 (BMP ALP assay, C2C12 cells, BMP7)” value was found to be 0.298 µg/mL and the “EC50 against the Wnt signaling inhibition by USAG-1 (WNT reporter assay, luciferase)” value came out at 4.73 µg/mL.

B2: mouse anti-USAG-1 neutralizing antibody E (B103) (antibody, mouse IgG1, kappa, V domains shown)
VH: DVQLQESGPGLVKPSQSLSLTCSVTGYSITSGYYWNWIRQFPGNKLEWMGCISYDGSNNYNPSLKNRISITRDTSKNQFFLKLNSVTTEDTATYYCARGGLLWGQGTTLTVSS
VL: DIQMTQSPSSLSASLGERVSLTCRASQEISGYLSWLQQKPDGNIKRLIYAASTLDSGVPKRFSGSRSGSDYSLTISRLESEDFADYYCLQYASYPWTFGGGTKLEIKR
notes: as for B1
Take B2: in test [1], the dissociation constant (Kd) was found to be 4.97 nM.

B3: mouse anti-USAG-1 neutralizing antibody A (E37) (antibody, mouse IgG1, kappa, V domains shown)
VH: QVQLQQSDAELVNPGASVKISCKVSGYTFTDHTIHWMKQRPEQGLEWIGYIYPGDGSTKYNEKFKGKATLTADKSSSTAYMQLNSLTSEDSAVYFCARTETYYGRIYYYAMDYWGQGTSVTVSS
VL: QIVLSQSPAILSASPGEKVTMTCRASSSVSYMYWYQQKPGSSPKPWIYATSNLASGVPIRFSGSGSGTSYSLTISRVEAEDAATYYCQQWSSNLTFGAGTKLELKR
As for B3, the binding result in test [3], in test [4], in [5], in test [6], in test [7] and in test [8] was “binds” throughout. Moreover, the binding result (in [9]; with human USAG-1 protein [10]) was “binds” each time. The Kd in test [1] came to 2.43 nM.

B4: mouse anti-USAG-1 neutralizing antibody B (E57) (antibody, mouse IgG1, kappa, V domains shown)
VH: EVQLQQSGPELVKPGASVKISCKTSGYSFTGYYMSWVKQSPEKSLEWIGEINPTTGGSTYNQKFKAKATLTVDKSSSTAYMQLKSLTSEDSAVYYCAREGYYSGISYDAMDYWGQGTSVTVSS
VL: DIQMTQTTSSLSASLGDRVTISCRASQDISNYLSWYQQKPDGTVKLLIYYTSRLHSGVPSRFSGSGSGTDYSLTISNLEQEDIATYFCQQGNTLPRTFGGGTKLEIKR
For the molecule B4, the binding result (in test [3]; with human USAG-1 protein [11]) was “binds” throughout. Further, the dissociation constant Kd in [1] came to 2.44 nM.
